For data set [1], the target named is von Willebrand factor (VWF), purified plasma-derived, multimeric, native (UniProt P04275). As to the kind of experiment: SPR (BIAcore), VWF injected under flow over immobilised T5-8CUB, equilibrium fit.
For data set [2] the target is unchanged. Description: cell-based or functional assay.
Data set [3] shares this target.
Data set [4] has the same target. Description: microtiter plate binding (ELISA format, anti-V5 detection), VWF immobilised, static. On the technique in general: In an ELISA, binding on a coated surface is turned into a signal by an enzyme label.
Data set [5] has as its target von Willebrand factor pre-denatured with 1.5 M guanidine-HCl at 37 C for two hours (UniProt P04275). As to the kind of experiment: SPR (BIAcore), guanidine-HCl denatured VWF injected over immobilised delCUB, equilibrium fit. For orientation: In SPR one partner is held on a chip, and binding of the other changes the refractive index at the surface.
In data set [6] the target is von Willebrand factor (VWF), purified plasma-derived, multimeric, native (UniProt P04275). Description: SPR (BIAcore) under laminar flow.
The target is the same in data set [7]. Description: SPR (BIAcore), VWF injected under flow over immobilised delCUB, equilibrium fit, no EDTA.
Data set [8] has the same target. Description: SPR (BIAcore), VWF injected under flow over immobilised delCUB, equilibrium fit, in the presence of 10 mM EDTA.
Data set [9] addresses von Willebrand factor pre-denatured with 1.5 M guanidine-HCl at 37 C for two hours (UniProt P04275). Description: SPR (BIAcore), guanidine-HCl denatured VWF injected over immobilised MDTCS, equilibrium fit.
Data set [10] has as its target von Willebrand factor (VWF), purified plasma-derived, multimeric, native (UniProt P04275). Description: microtiter binding assay, immobilised vWF.
For data set [11], the target named is recombinant vWF expressed in BHK cells overexpressing PACE/furin (UniProt P04275). As to the kind of experiment: cell-based or functional assay.
Data set [12] has as its target von Willebrand factor (VWF), purified plasma-derived, multimeric, native (UniProt P04275). As to the kind of experiment: SPR (BIAcore) under flow.
The target is the same in data set [13]. Description: SPR (BIAcore), VWF injected under flow over immobilised T2-8CUB, equilibrium fit.

“ADAMTS13 TSP1 5-8 repeats plus CUB domains, N-terminal linker and Flag, C-terminal V5-His (from UniProt Q76LX8 884-1191; Q76LX8 1192-1427)”: the Kd – broadly, the constant that tells how readily two partners part at equilibrium – in [1] was found to be 212 nM. In data set [2], this molecule registered an inhibition of proteolytic cleavage of VWF by ADAMTS13 under vortex-induced shear stress, fragment at 150 nM of 75%.
“ADAMTS13 variant truncated after the 8th TSP-1 repeat (lacking the CUB domains), C-terminal V5-His”: the “cleavage of VWF under vortex-induced mechanic shear stress” value in data set [3] is given as “A removal of the CUB domains (delCUB) or more (MDTCS) abrogates its ability to cleave VWF”.
Take “ADAMTS13 variant truncated after the 8th TSP-1 repeat (lacking the CUB domains), C-terminal V5-His (from UniProt Q76LX8 75-1191) (enzyme)”: the equilibrium dissociation constant (Kd) in data set [4] worked out at 70 nM; in data set [5], 242 nM; in data set [7] it was 274 nM; in [8] it was 468 nM. Further, in data set [6], the fold reduction in affinity against full-length ADAMTS13 is 5 fold.
As to “ADAMTS13 variant truncated after the spacer domain, C-terminal V5-His”, in data set [3], the “cleavage of VWF under vortex-induced mechanic shear stress” value was “A removal of the CUB domains (delCUB) or more (MDTCS) abrogates its ability to cleave VWF”.
In the case of “ADAMTS13 variant truncated after the spacer domain, C-terminal V5-His (from UniProt Q76LX8 75-685) (enzyme)”, the values for the Kd in data set [4] and in data set [9] were 56 nM and 337 nM, respectively.
Consider “B-domainless derivative of human factor VIII, FVIII-SQ (from UniProt P00451 20-762; P00451 1657-1667; P00451 1668-2351)”, for which, in data set [2], the half-maximal effect on vWF proteolysis by ADAMTS13 turned out to be 2.5 nM and the increase in vWF proteolysis by ADAMTS13 under shear stress was found to be 10 fold.
For “isolated light chain of FVIII (from UniProt P00451 1668-2351)”, the dissociation constant Kd in data set [10] is 17 nM. In data set [2], the concentration of FVIII-LC achieving the half maximal rate enhancing effect (IC50) was determined as 2 nM and the increase of the maximal proteolytic cleavage product (˜350 kDa) with 5 nM FVIII-LC was in the range of 7 to 8 fold.
As for “recombinant human full-length coagulation factor VIII (from UniProt P00451 20-1667; P00451 1668-2351)”, in data set [11], the half-maximal effect of FVIII on cleavage of rvWF by ADAMTS13 amounted to 3 nM and the increase in product formation with rvWF as substrate in the presence of 20 nM FVIII worked out at 10 fold. Moreover, in data set [2], the Km of the enhancement of VWF cleavage by ADAMTS13 fell in the range of 2 to 3 nM, the concentration of FVIII required for half maximal enhancement in product formation came to 3 nM, the enhancement of ADAMTS13 cleavage of plasma vWF (350K product) in the presence of 10-20 nM FVIII was 10 to 12 fold and the half maximal effect of rFVIII on proteolytic cleavage of VWF by ADAMTS13 was 2.9 nM.

B1: ADAMTS13 TSP1 2-8 repeats plus CUB domains, N-terminal linker and Flag, C-terminal V5-His (protein, not shown: small tags and cut ends)
chain: AAQPARRARRTKLALDTKDDDDKHVWTPVAWVWAAVRGPCSVSCGAGLRWVNYSCLDQARKELVETVQCQGSQQPPAWPEACVLEPCPPYWAVGDFGPCSASCGGGLRERPVRCVEAQGSLLKTLPPARCRAGAQQPAVALETCNPQPCPARWEVSEPSSCTSAGGAGLALENETCVPGADGLEAPVTEGPGSVDEKLPAPEPCVGMSCPPGWGHLDATSAGEKAPSPWGSIRTGAQAAHVWTPAAGSCSVSCGRGLMELRFLCMDSALRVPVQEELCGLASKPGSRREVCQAVPCPARWQYKLAACSVSCGRGVVRRILYCARAHGEDDGEEILLDTQCQGLPRPEPQEACSLEPCPPRWKVMSLGPCSASCGLGTARRSVACVQLDQGQDVEVDEAACAALVRPEASVPCLIADCTYRWHVGTWMECSVSCGDGIQRRRDTCLGPQAQAPVPADFCQHLPKPVTVRGCWAGPCVGQGTPSLVPHEEAAAPGRTTATPAGASLEWSQARGLLFSPAPQPRRLLPGPQENSVQSSACGRQHLEPTGTIDMRGPGQADCAVAIGRPLGEVVTLRVLESSLNCSAGDMLLLWGRLTWRKMCRKLLDMTFSSKTNTLVVRQRCGRPGGGVLLRYGSQLAPETFYRECDMQLFGPWGEIVSPSLSPATSNAGGCRLFINVAPHARIAIHALATNMGAGTEGANASYILIRDTHSLRTTAFHGQQVLYWESESSQAEMEFSEGFLKAQASLRGQYWTLQSWVPEMQDPQSWKGKEGT
With B1, the fold increase in affinity against T5-8CUB in data set [12] was found to be 1.5 fold. In addition, the Kd in [13] was 140 nM. The molecule also gave an inhibition of proteolytic cleavage of VWF by ADAMTS13 under vortex-induced shear stress, fragment at 150 nM in data set [2] of 100%.

The values above are taken from patent US20100144634A1 (published 2010).
